Consider eleven compounds from paper PMC7156744, “CdbA is a DNA-binding protein and c-di-GMP receptor important for nucleoid organization and segregation in Myxococcus xanthus” (Nature Communications, 2020).

By Kd is commonly meant a measure of binding affinity in units of concentration. A higher Kd goes with weaker binding. Usually stoichiometry N stands for a count of units in the complex or per binding partner.

Data set [1] concerns CdbA-His6 (Myxococcus xanthus DK1622). In words: EMSA. Particulars: 10x buffer: 380 mM HEPES, 380 mM NaCl, 50 mM MgCl2, 50% glycerol, 10 mM DTT, 15 ng/ul poly(dI-dC), 50 ng probe, 30 C 30 min, 10% PAGE 1x TBE 4 C, pH not …. A general note: A gel shift assay detects complexes by their altered migration in electrophoresis.
The target in another data set is T1, CdbA (Myxococcus xanthus, UniProt Q1D489).
T1 construct: gene MXAN_4361; full-length CdbA-His6 (67 amino acids), tetramer
Briefly: ITC (also DRaCALA, SEC, HDX-MS; EMSA shows inhibition of DNA binding).

The target in data set [2] is CdbA^K8A/S10A-His6 (Myxococcus xanthus). Briefly: SEC; analytical SEC, 200 µM CdbA wild-type or variant without c-di-GMP, Superdex S200 Increase 10/300 GL, SEC buffer (20 mM HEPES-Na pH 7.5, 200 mM NaCl, 20 mM MgCl2, 20 mM KCl), 4 °C; oligomer size from apparent molecular mass. For orientation: SEC sorts molecules by how far they enter the pores of the column.
Data set [3] has as its target CdbA-His6 (C-terminally His6-tagged CdbA, MXAN_4361) (Myxococcus xanthus). Briefly: SEC; analytical SEC, 200 µM CdbA incubated with 200 µM c-di-GMP for 1 minute at 25 °C, Superdex S200 Increase 10/300 GL, SEC buffer, 4 °C; oligomer size from apparent molecular mass.
The target is the same in data set [4]. In words: crystal structure; crystal form one (dimeric form) of full-length CdbA-His6, 0.1 M MgCl2, 0.1 M HEPES-NaOH pH 7.0, 15% PEG 4000; SAD phasing with a Pt derivative; residues 5-52 traced.
Data set [5] has the same target. The data set is described as above. The source holds these as a separate data set.
For data set [6] the target is unchanged. In words: crystal structure; crystal form two (tetrameric form) of full-length CdbA-His6, 0.1 M sodium malonate, 0.1 M HEPES-NaOH pH 7.0, 30% polyacrylic acid sodium salt 2100; molecular replacement; three copies in the asymmetric unit.
For data set [7] the target is unchanged. Briefly: SEC; analytical SEC, 200 µM CdbA wild-type or variant without c-di-GMP, Superdex S200 Increase 10/300 GL, SEC buffer (20 mM HEPES-Na pH 7.5, 200 mM NaCl, 20 mM MgCl2, 20 mM KCl), 4 °C; oligomer size from apparent molecular mass.
Data set [8] concerns the target T2, CdbA-His6 (Myxococcus xanthus DK1622) (UniProt Q1D489).
T2 sequence: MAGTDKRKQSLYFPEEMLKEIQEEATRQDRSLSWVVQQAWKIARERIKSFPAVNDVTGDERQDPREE
Briefly: EMSA. The note with it: 10x buffer: 380 mM HEPES, 380 mM NaCl, 50 mM MgCl2, 50% glycerol, 10 mM DTT, 15 ng/ul poly(dI-dC), 50 ng probe, 30 C 30 min, 10% PAGE 1x TBE 4 C, pH not ….

Data set [9] deals with CdbA^R27A/R30A-His6 (Myxococcus xanthus). In words: SEC; analytical SEC, 200 µM CdbA wild-type or variant without c-di-GMP, Superdex S200 Increase 10/300 GL, SEC buffer (20 mM HEPES-Na pH 7.5, 200 mM NaCl, 20 mM MgCl2, 20 mM KCl), 4 °C; oligomer size from apparent molecular mass.

In turn, no-peak control fragment displayed a Kd in data set [1] of 4000 nM.
On to `Nc1nc2c(ncn2[C@@H]2O[C@@H]3CO[P@](=O)(O)O[C@H]4[C@@H](O)[C@H](n5cnc6c(=O)[nH]c(N)nc65)O[C@@H]4CO[P@](=O)(O)O[C@H]3[C@H]2O)c(=O)[nH]1` [c-di-GMP], for which, at CdbA, the Kd is roughly 83 nM.
In the case of CdbA^K8A/S10A-His6 (natural protein), the stoichiometry N in data set [2] came to 4.
Turning to “CdbA-His6 (C-terminally His6-tagged CdbA, MXAN_4361) (natural protein)”, the stoichiometry N in [3] was 4; in data set [4] it was 2; in [5], 4; in [6], 4; in [7], 4.
Turning to cdbAB promoter, the Kd in [1] was found to be 900 nM.
Consider “GACACACCTTCTCCGAGCGGCTTGCGGTGTTCGGGGGACTCGGGCTTGCGCTCGGGTTCGGCGCGGGCCTGCGCGGAGACGCGGAAGCCTTCACTGGGGTTCAGTGGATCTTCCCGGTCGGATCGAAGTGAATTTCTTGCGATCAGACCGACTTGTGAGAATGTGTGCGCATCTGTAGGAGGTCGCGCACATGGACATGAATCCCCGTCTTACCTCAGTGGTCTTCCGGCTCAACCGCGAGAAGCTCGAC (double strand) [peak rank #1 fragment (MXAN_4058 promoter), WT]”, for which the dissociation constant (Kd) in data set [8] turned out to be 400 nM.
Still for that read-out and setting: to “ACTTGGGTCTCCGGGGCGGATTCGGGGTGACGACCTGAACACACCTGGGCCGTTATCCGACAGACTCCCAAGTGGGTCAACGGTTTCCAAGGACTCATTCCGAGGTCGCACGGTCCGTCCCCGTGCTCGTCCAGTTGCACGTAAGCTGTGCAACCATGCGCGAAAAAGGAAACGCCCCGGACTCCACGAGGAAGTCCGGGGCGCTTCGGAAAGAGGGACCGCCTAGAGAAATCTCCAGGCGGGCCCGTGG (double strand) [cdbAB promoter]” belongs 900 nM; to “GACACACCTTCTCCGAGCGGCTTGCGGTGTTCGGGGGACTCGGGCTTGCGCTCGGGTTCGGCGCGGGCCTGCGCGGAGACGCGGAAGCCTTCACTGGGGTTCAGTGGATCTTCCCGGTCGGATCGAAGTGAATTTCTTGCGATCAGACCGACTTGTGAGAATGTACGCGCATCTACAGGAGGTCGCGCACATGGACATGAATCCCCGTCTTACCTCAGTGGTCTTCCGGCTCAACCGCGAGAAGCTCGAC (double strand) [MXAN_4058 promoter, two repeats mutated]”, 2500 nM; to “GACACACCTTCTCCGAGCGGCTTGCGGTGTTCGGGGGACTCGGGCTTGCGCTCGGGTTCGGCGCGGGCCTGCGCGGAGACGCGGAAGCCTTCACTGGGGTTCAGTGGATCTTCCCGGTCGGATCGAAGTGAATTTCTTGCGATCAGACCGACTTGTGAGAATGTGTGCGCATCTACAGGAGGTCGCGCACATGGACATGAATCCCCGTCTTACCTCAGTGGTCTTCCGGCTCAACCGCGAGAAGCTCGAC (double strand) [MXAN_4058 promoter, one repeat mutated]”, 1100 nM.
As to CdbA^R27A/R30A-His6 (natural protein), in [9], the stoichiometry N came to 4.
In data set [1], “peak rank #1 fragment (MXAN_4058 promoter), WT” had a Kd of 400 nM.
